According to paper PMC6200327 (The Biochemical journal, 2018):

Target: the molecule itself
Experiment: crystal structure

B1: mouse RIG-I CARDs (residues 1-189), bacterially expressed (domain or fragment, UniProt Q6Q899 1-189, looked up)
chain: MTAEQRQNLQAFRDYIKKILDPTYILSYMSSWLEDEEVQYIQAEKNNKGPMEAASLFLQYLLKLQSEGWFQAFLDALYHAGYCGLCEAIESWDFQKIEKLEEHRLLLRRLEPEFKATVDPNDILSELSECLINQECEEIRQIRDTKGRMAGAEKMAECLIRSDKENWPKVLQLALEKDNSKFSELWIVD
How did the “stoichiometry N” value turn out when B1 was run?
Its value is 4.
